Experimental data taken from publication PMC3264700 (Journal of Molecular and Cellular Cardiology, 2011).
Values joined by “and” are separate entries in the source; they are usually repeats but may differ in a detail not shown here. Identical values can stand only once. Like-named read-outs stand apart in the source and are kept apart here.

Experiments:
native gel or EMSA [1] = molecular target: the molecule itself; assay: native gel or EMSA
native gel or EMSA [2] = molecular target: the molecule itself; assay: native gel or EMSA; remark: listed apart in the source

Protein | stoichiometry N (native gel or EMSA [1]) | stoichiometry N (native gel or EMSA [2])
adiponectin, endogenous in human coronary artery VSMC (hCASMC) (natural protein, human (endogenous in hCASMC), UniProt Q15848 19-244, looked up) ETTTQGPGVLLPLPKGACTGWMAGIPGHPGHNGAPGRDGRDGTPGEKGEKGDPGLIGPKGDIGETGVPGAEGPRGFPGIQGRKGEPGEGAYVYRSAFSVGLETYVTIPNMPIRFTKIFYNQQNHYDGSTGKFHCNIPGLYYFAYHITVYMKDVKVSLFKKDKAMLFTYDQYQENNVDQASGSVLLHLEVGDQVWLQVYGEGERNGLYADNDNDSTFTGFLLYHDTN | 2 and 3 and 6 | –
adiponectin secreted by wild type mouse aortic VSMC (natural protein, UniProt Q60994 18-247, looked up) EDDVTTTEELAPALVPPPKGTCAGWMAGIPGHPGHNGTPGRDGRDGTPGEKGEKGDAGLLGPKGETGDVGMTGAEGPRGFPGTPGRKGEPGEAAYVYRSAFSVGLETRVTVPNVPIRFTKIFYNQQNHYDGSTGKFYCNIPGLYYFSYHITVYMKDVKVSLFKKDKAVLFTYDQYQEKNVDQASGSVLLHLEVGDQVWLQVYGDGDHNGLYADNVNDSTFTGFLLYHDTN | – | 3
